This note sets out measurements from patent publication US20040023313A1 (Amgen, published 2004).

Experiment [1] deals with T1, OPGL used in the RAW 264.7 osteoclast formation assay (Example 6) (human, UniProt O14788 143-317, limits assumed).
T1 sequence (looked up): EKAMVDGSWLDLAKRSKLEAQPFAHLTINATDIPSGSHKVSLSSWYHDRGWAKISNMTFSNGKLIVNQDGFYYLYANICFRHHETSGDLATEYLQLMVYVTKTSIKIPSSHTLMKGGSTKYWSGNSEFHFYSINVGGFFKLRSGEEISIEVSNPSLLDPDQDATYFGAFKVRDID
Description: cell-based or functional assay.

The target of experiment [2] is T2, E. coli mouse OPGL (mOPGL) 158 (mouse, UniProt O35235 158-316).
T2 construct: kept apart
T2 sequence (looked up): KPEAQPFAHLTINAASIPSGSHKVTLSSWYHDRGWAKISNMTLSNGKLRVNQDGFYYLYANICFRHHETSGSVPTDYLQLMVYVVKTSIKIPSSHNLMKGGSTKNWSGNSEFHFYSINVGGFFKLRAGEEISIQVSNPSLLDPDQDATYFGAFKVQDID
Description: SPR (BIAcore 2000), antibody captured on Protein G, mOPGL 158 in solution. The protocol: (§1) All experiments were performed on a BlAcore 2000 according to the manufacturer's instructions, with the following modifications. Experiments were performed at room temperature using a running buffer containing 10 mM Hepes (pH 7.4), 0.15M NaCl, 3 mM EDTA, and 0.005% Tween 20. Protein G at 50 μg/mL in 10 mM acetate pH 4.5 was immobilized to a level of 1,600 response units (RU) onto a CM5 Research grade sensor chip (BlAcore, Inc.). Antibodies (8-20 μg/mL) were captured onto the Protein G chip at a level of 300-400 RUs. […] Langmuir 1:1 model was used to determine binding kinetics. Protein G immobilized to 1600 RUs was used as a blank surface. A mouse monoclonal antibody was used as a positive control to show binding to hOPGL 140 and to monitor surface stability.

Experiment [3] concerns the target T3, CHO human OPGL (hOPGL) 140 (human, UniProt O14788 140-317).
T3 construct: also called CHO hOPGL 140
T3 sequence (looked up): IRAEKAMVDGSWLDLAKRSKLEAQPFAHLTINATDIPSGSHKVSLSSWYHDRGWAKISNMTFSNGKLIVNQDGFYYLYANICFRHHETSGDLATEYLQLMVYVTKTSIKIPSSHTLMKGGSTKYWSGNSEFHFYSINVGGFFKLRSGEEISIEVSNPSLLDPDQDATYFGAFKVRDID
As to the kind of experiment: SPR (BIAcore 2000), antibody captured on Protein G, hOPGL 140 in solution 0.25-62 nM, Langmuir 1:1. The protocol:
as §1
(In general: SPR reads the build-up and loss of mass on a sensor chip optically.)

A further experiment has as its target T4, Murine OPGL [158-316] (murine, UniProt O35235 158-316).
T4 sequence: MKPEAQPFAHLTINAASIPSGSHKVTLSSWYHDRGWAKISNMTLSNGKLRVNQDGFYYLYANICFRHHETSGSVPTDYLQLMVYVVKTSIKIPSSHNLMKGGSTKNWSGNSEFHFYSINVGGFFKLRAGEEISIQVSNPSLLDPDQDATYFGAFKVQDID
Description: ELISA: plate coated with murine OPGL[158-316] at 3 µg/mL, antibody titrated 1.95-2000 ng/ml, goat anti-human IgG (Fc) detection, ABTS, OD405. The protocol: (§2) After overnight incubation, the protein solutions were removed from the plate and 200 μL of 5% Chicken Serum (Gibco/BRL Cat# 16110-082) in PBST (PBS plus 0.05% Tween 20) was added to each well of the plate and plates were incubated at room temperature (RT) for 3 hours with agitation. After incubation and blocking, plates were washed 4 times with 1× K-P wash solution in dH₂O (Cat# 50-63-00, Kirkegaard & Perry Laboratories) and dried. […] Plates were incubated for 2.25 hours at room temperature with agitation, washed four times with 1× K-P wash solution and dried. Goat anti-human IgG (Fc) (Jackson ImmunoResearch, Cat# 109-036-098) was diluted 1:3000 in 5% Chicken Serum in PBST and 100 μL was added to each well. […] 100 μL of undiluted ABTS substrate (Kirkegaard & Perry; Cat# 50-66-00) was added to each well and the dish was incubated at room temperature until sufficient blue-green color developed. Color development was stopped by addition of 100 μL 1% SDS. Quantitation of color development was performed using a microtiter plate reader with detection at 405 nm.
A general note: An ELISA detects its analyte on a solid surface through an enzyme-linked reagent.

Experiment [4] deals with T5, FLAG-murine OPGL [158-316]/DE (murine, UniProt O35235 158-316).
T5 construct: The same paragraph also prints the changes as S231D, V232L, P233A and D235E (T234 unchanged), a numbering two higher than the 229-233 it gives first
Description: ELISA: plate coated with FLAG-murine OPGL[158-316]/DE at 3 µg/mL, antibody titrated 1.95-2000 ng/ml, goat anti-human IgG (Fc) detection, ABTS, OD405. The protocol: as §2

B1: 18B2 anti-OPGL antibody (antibody, V domains shown)
VH: EVQLVQSGGGLVHPGGSLRLSCVGSRFTFSAYPMHWVRQAPGKGLEWVSGIGSGGGTNYADSVKGRFTISRDTAKNSLYLQMNSLRAEDMAVYYCARGRNSFDYWGQGTLVTVSS
VL: DIQMTQSPSSLSASVGDRVTITCRASQGISTWLAWYQQKPEKAPKSLIYAASSLQSGVPSRFSGSGSGTDFTLTISSLQPEDFATYYCQQYNSYPPTFGQGTKVEIKR
notes: Fully human IgG1 kappa from HuMab mice
By koff is commonly meant the rate constant with which the complex falls apart. A higher koff goes with a short-lived complex. The kon is the second-order rate constant of association. High values mean faster complex formation, low ones slower complex formation. Turning to B1, the “IC50 (ng/mL), inhibition of OPGL-driven osteoclast formation of RAW 264.7 cells (TRAP activity, OD 405 nM)” value (shortened to “IC50 (ng/mL), inhibition”) in experiment [1] came out at 80 ng/mL. Moreover, in experiment [2], the binding result is “no binding (tested: 0.25-62 nM)”. In addition, in experiment [3], the off-rate constant (koff) was 0.000186 s⁻¹, the association rate constant (kon) was 878000 M⁻¹ s⁻¹ and the “off rate half life t½” value was determined as 1.03 h. In the experiment with Murine OPGL [158-316], the binding result is recorded as “no binding (tested: 2000 ng/ml)”.

B2: 2E11 anti-OPGL antibody (antibody, V domains shown)
VH: EVQLVQSGGDLVHPGGSLRLSCVGSGFTFSHYPLHWVRQAPGKGLEWISGIHTGGGTYYTDSVKGRFTISSDNAKNSLYLQMNTLRAEDMAVYYCARGRNSFDYWGQGTLVIVSS
VL: DIQMTQSPSSLSASVGDRVTITCRASQGISSWLAWYQQKPEKAPKSLIYAASSLQSGVPSRFSGSGSGTDFTLTISSLQSEDFATYYCQQYNSYPPTFGQGTRLEIKR
notes: Fully human IgG1 kappa from HuMab mice; also called 2 µl 1
For B2, the “IC50 (ng/mL), inhibition” value in experiment [1] was 77 ng/mL. In addition, in experiment [2], the binding result is listed as “no binding (tested: 0.25-62 nM)”. Besides, in experiment [3], the koff stood at 0.000132 s⁻¹, the kon came to 453000 M⁻¹ s⁻¹ and the “off rate half life t½” value was determined as 1.46 h. For the same molecule, the binding result with Murine OPGL [158-316] was “no binding (tested: 2000 ng/ml)”. Further, the binding result in experiment [4] is recorded as “no binding (tested: 2000 ng/ml)”.

B3: 9H7 anti-OPGL antibody (antibody, V domains shown)
VH: EVQLVQSGGGLVHPGGSLRLSCEGSGFTFSSNGMHWVRQTPGKGLEWVSGIGTAGGTYYADSVKGRFTISRDNVKKSLYLQMNSLRAEDMAIYYCVRKDWGWFDPWGQGALVTVSS
VL: EIVLTQSPATLSLSPGERATLSCRASQSISSYLAWYQQKPGQAPRLLIYDASNRATGIPARFSGSGSGTDFTLTISSLEPEDFAVYYCQQRSKWPPYTFGQGTKLEIKR
notes: Fully human IgG1 kappa from HuMab mice; also called 9H7 anti-OPGL MAb
As to B3, the “IC50 (ng/mL), inhibition” value in experiment [1] was found to be 129 ng/mL. Moreover, the binding result in experiment [2] was “no binding (tested: 0.25-62 nM)”; in the experiment with Murine OPGL [158-316], “no binding (tested: 2000 ng/ml)”.

B4: 16E1 anti-OPGL antibody (antibody, V domains shown)
VH: EVQLVQSGGGLVHPGGSLRLSCAGSGFTFSGHALHWVRQAPGKGLEWVSGIGTHGGTYYADSVKGRFTISRDNAKNSLFLQMNSLSAEDMAVYYCTRRNWGQFDYWGQGTLVTVSS
VL: EIVLTQSPATLSLSPGERATLSCRASQSVSSYLAWYQQKPGQAPRLLIYDASNRATGIPARFSGSGSGTDFTLTISSLEPEDFAVYYCQQRSNWPPYTFGQGTKLEIKR
notes: as for B1
For orientation: EC50 (read off the curve) means the concentration giving half of the maximal effect. Read a high EC50 (read off the curve) as lower potency in that assay. Consider B4, for which the “IC50 (ng/mL), inhibition” value in experiment [1] amounted to 352 ng/mL. The binding result in experiment [2] is given as “no binding (tested: 0.25-62 nM)”. Further, in experiment [3], the koff amounted to 0.000137 s⁻¹, the kon is 2.16e+06 M⁻¹ s⁻¹ and the “off rate half life t½” value was determined as 1.41 h. Also, the binding result with Murine OPGL [158-316] is on record as “no binding (tested: 2000 ng/ml)”. Besides, the 50% effective concentration (EC50 (read off the curve)) in experiment [4] was ~0.01 µg/mL.

B5: 2D8 anti-OPGL antibody (antibody, V domains shown)
VH: EVQLVQSGGGLVHPGGSLRLSCAGSGFTFSSYGMHWVRQAPGKGLEWVSGIGTGGGTYYADSVKGRFTISRDNVKNSLYLQMNSLRAEDMAVYYCARKNWGWFDYWGQGTLVTVSS
VL: EIVLTQSPATLSLSPGERATLSCRASQSISSYLAWYQQKPGQAPRLLIYDASNRATGIPARFSGSGSGTDFTLTISSLEPEDFAVYYCQQRSKWPPYTFGQGTKLEIKR
notes: as for B1
With B5, the “IC50 (ng/mL), inhibition” value in experiment [1] is 611 ng/mL. Also, the binding result in experiment [2] is “no binding (tested: 0.25-62 nM)”; with Murine OPGL [158-316], “no binding (tested: 2000 ng/ml)”.

B6: 22B3 anti-OPGL antibody (antibody, human IgG1, kappa, V domains shown)
VH: EVQLVQSGGGLVHPGGSLRLSCEGSGFTFSSNGMHWVRQTPGKGLEWVSGIGTAGGTYYADSVKGRFTISRDNVKKSLYLQMNSLRAEDMAIYYCVRKNWGWFDPWGQGALVTVSS
VL: EIVLTQSPATLSLSPGERATLSCRASQSVNSYLAWFQQKPGQAPRLLIYDASNRATGIPARFSGSGSGTDFTLTISSLEPEDFAIYYCQQRSNWPPFTFGQGTKLEIKR
notes: as for B1
On to B6, for which the “IC50 (ng/mL), inhibition” value in experiment [1] is 146 ng/mL. Moreover, in experiment [3], the dissociation rate constant (koff) stood at 6.39e-05 s⁻¹, the kon is 1.9e+06 M⁻¹ s⁻¹ and the “off rate half life t½” value came out at 3.01 h. For the same molecule, in experiment [4], the “EC50 (read off the curve)” value was ~0.009 µg/mL.
